Assay results as given in patent US20050069887A1, “Dna synthesis promoters dna polymerase-associated factors and utilization thereof” (priority 2001, published 2005).
Where two headings read alike, the source gives them in different places.

Assays:
[1] = target: T1, KOD-plus DNA polymerase (Thermococcus kodakarensis, UniProt P77933, DEL407-766/DEL853-1389); format: biochemical, Thermococcus kodakaraensis KOD1; conditions: 2 mM potassium oxalate, FIG. 14
T1 construct: purchased Toyobo
Procedure: Oxalate ion and DMSO were investigated for their synergistic effectiveness for hot start enzyme in amplification of a target DNA which is difficult to amplify by usual PCR, using a KOD-plus DNA polymerase, i.e., hot start enzyme. Potassium oxalate was added to the PCR buffer supplied with KOD-plus (TOYOBO CO., LTD.) to attain a final concentration of 2 mM. Also used were 0.2 mM dNTPs and […] of a pair of primers of SEQ ID Nos:18 and 19, and 1.0 U KOD-plus DNA polymerase. 0.5 μL of cDNA obtained by reverse transcription of 500 ng of total RNA derived from human cell line K562 with ThermoScript (Invitrogen) was used as a template. This reaction mixture was subjected to PCR by using GeneAmp2400 (PE Applied Biosystems) to investigate the influence on the PCR results of varying the concentration of DMSO. The PCR conditions were as follows: 1 preliminary reaction of 94° C. for 2 minutes, and then 40 cycles of 94° C. for 15 seconds, 60° C. for 30 seconds and 68° C. for 9 minutes.

[2] = target: T2, KOD DNA polymerase (Thermococcus kodakarensis, UniProt P77933, DEL407-766/DEL853-1389); experiment: PCR of 3.6 kb globin cluster DNA using KOD DNA polymerase with PCNA/RFC (Examples 3-12 to 3-14); format: biochemical, Thermococcus kodakaraensis KOD1
Procedure: The effect produced by the addition of KOD-PCNA protein on PCR amplification of a 3.6 kb DNA in a human […] cluster was investigated. The PCR buffer supplied with KOD-Plus (TOYOBO CO.,LTD), 0.2 mM dNTPs and 0.3 μM of a pair of primers of SEQ ID Nos:60 and 61 were used. 1 U KOD DNA polymerase was used as a heat-resistant DNA polymerase, and genomic DNA derived from human cell line K562 was used as a template. This reaction mixture was subjected to PCR using GeneAmp2400 (PE Applied Biosystems) to investigate the difference in the PCR results caused by the presence or absence of PCNA. The PCR conditions were as follows: 1 preliminary reaction of 94° C. for 2 minutes; and then 35 cycles of 94° C. for 20 seconds, 60° C. for 30 seconds and 68° C. for 4 minutes.
The effect produced by the addition of the KOD-RFC complex was investigated with the same target DNA and reaction solution as in Example 3-12. The amount of RFC effective for PCR was investigate by using 1 ng of genomic DNA derived from human cell line K562 as a template.
The effect produced by the addition of KOD-PCNA protein and KOD-RFC complex was investigated with the same target DNA and reaction solution as in Example 3-12. 1 ng of genomic DNA derived from human cell line K562 was used as a template and their optimal ratios were investigated.

[3] = test system: KOD Dash DNA polymerase; experiment: PCR using mixed-type KOD Dash DNA polymerase with PCNA/RFC (Example 3-15); format: biochemical, Thermococcus kodakaraensis KOD1; conditions: 1 ng template, FIG. 34
Procedure: The effect produced by the combined use of KOD-PCNA protein and the KOD-RFC complex in PCR using a mixture of two kinds of DNA polymerases was investigated with the same target DNA and reaction solution as in Example 3-12
1 ng of genomic DNA derived from human cell line K562 was used as a template. KOD Dash DNA polymerase, which is a mixture of KOD DNA polymerase and KOD (exo-) DNA polymerase which has lost KOD 3′-5′ exonuclease activity, was used as the mixed-type DNA polymerase.

[4] = target: T2, KOD DNA polymerase; experiment: DNA elongation by KOD DNA polymerase on primed M13 mp18 DNA (Examples 3-10, 3-11); format: biochemical, Thermococcus kodakaraensis KOD1; conditions: for elongation (size of synthesized DNA): 75° C.
Procedure: 150 fmol of KOD DNA polymerase was reacted with 1.5 pmol of DNA obtained by annealing an M13 P7 primer (SEQ ID NO:59) to M13 mp18 DNA (circular single-stranded DNA) to determine processivity. 450 fmol, 1.5 pmol, 4.5 pmol and 15 pmol samples of KOD-PCNA obtained in Example 3-6 were added to reaction buffer solutions [20 mM Tris-HCl (pH 7.5 at 75° C.), 10 mM KCl, 6 mM (NH4)2SO4, 2 mM MgCl2, 0.1% Triton X-100, 10 μg/ml BSA]. The mixtures were reacted at 75° C. for varying times: 30 seconds, 60 seconds and 120 seconds, to investigate their degrees of elongation. In the course of the elongation reaction DNA samples were withdrawn at the above reaction times and added to the same quantity of a stop solution (60 mM EDTA, […], 0.1% BPB, 30% glycerol). The obtained DNA samples were separated by 1% alkaline agarose electrophoresis and analyzed to determine the sizes of the synthesized DNA.
KOD DNA polymerase reactions were conducted in a similar manner to Example 3-10 either in the presence of KOD-PCNA or in the copresence of KOD-PCNA and KOD-RFC by using an circular single stranded DNA, which was annealed with a primer, as a substrate. […] This is presumably because almost all the KOD DNA polymerase molecules were available to react with PCNA in the presence of the RFC complex.

[5] = test system: pMol 21; conditions: PCR product fidelity, rpsL / pMol 21 method; cited from earlier work
[6] = PCNA added in 30 times the molar amount of DNA polymerase

**Q.** Which results are given for C[S+](C)[O-] [DMSO, dimethylsulfoxide]?
**A.** amplification of target DNA ([1]; 5% DMSO): sufficient amplification was observed; amplification of target DNA ([1]; in the presence of DMSO, cDNA template): an increase in amplification amount was observed

B1: RFC: replication factor C complex of KOD-mRFCS and KOD-RFCL derived from KOD1 (protein)
chain 1: MSEEVKEVKILEKPWVEKYRPQRLEDIVGQDHIVKRLKHYVKTGSMPHLLFAGPPGVGKTTAALALARELFGENWRHNFLELNASDERGINVIREKVKEFARTKPIGGASFKIIFLDEADALTQDAQQALRRTMEMFSNNVRFILSCNYSSKIIEPIQSRCAIFRFRPLRDEDIAKRIRYIAENEGLELTEEGLQAILYVAEGDLRRAINVLQAAAALDTKITDENVFLVASRARPEDVREMMTLALEGNFLKAREKLRDILLRQGLSGEDVLIQMHKEVFNLPIPEDKKVALADKIGEYNFRLVEGANEMIQLEALLAQFTIMGK
chain 2: MTEVPWVEKYRPRKLSEIVNQEKALEQVRAWVEAWLHGNPPKKKALLLAGPPGVGKTTTVYALANEYGFEVIELNASDERTYEKIERYVQAAYTMDILGKRRKLIFLDEADNIEPSGAREIAKLIDKARNPIIMSANHYWEVPREIRNKAQIVEYKRLTQRDIIKALVRILKREGLEVPKEVLYEIAKRANGDLRAAVNDLQTVVTGGVEDAVEVLAYRDTEKSVFQALAQLFATDNAKRAKLAVLGVDMMPNELLQWIDENVPYVYYRPEDIARAYEALSRADIYLGRAQRTGNYGLWKYATDMMTAGVAVAGIKKKGFVKIYPPKTIKLLTESKEERSLRDSVIKKIMSEMHMAKLEAIETLRYLRVIFENNPDLAAHFVVFLDLSEKEVEFITGDKEKAKTIWAKSMNIEKKLKKEGELEARAKEAERRVEAAEEEETMEAGEPEEELEEVEEEELTEEELEEAEEEIETVGKKEKPEKEKTKKGKQATLFDFLKK
**Q.** Which “amplification of the target DNA” value ([2]; 1.5 pmol further added to 10 fmol of PCNA, 1 ng template, FIG. 33) does the source give for B1 here?
**A.** The value was “sufficient amplification was observed”.

**Q.** And the “amplification of the target DNA” value ([3]; further addition of RFC to PCNA)?
**A.** The value was “amplification of the target DNA was greatly clarified”.

B2: PCNA: proliferating cell nuclear antigen derived from Thermococcus kodakaraensis KOD1, SEQ ID NO: 2 (protein)
chain: MPFEVVFDGAKEFADLIATASNLIDEAAFKFTEEGISMRAMDPSRVVLIDLNLPESIFSKYEVEEPETIGINMDQFKKILKRGKAKDTLILRKGDENFLEITFEGTAKRTFRLPLIDVEELELELPELPFTAKVVLLGEVLKEGIKDASLVSDAIKFIAKENEFTMKAEGETNEVEIRLTLEDEGLLDLEVEEETKSAYGISYLSDMVKGIGKADEVILRFGNEMPLQMEYMIRDEGRLTFLLAPRVEE
modifications: Thermococcus kodakaraensis KOD1; KOD-PCNA
**Q.** For B2, which “DNA elongation rate of KOD DNA polymerase” value [4, 6] is on record?
**A.** The value was 120 bases per second.

**Q.** And the “DNA elongation rate relative to the sample with no PCNA added” value [4, 6]?
**A.** The value was “about 3 times”.

**Q.** And the DNA elongation rate ([4]; only PCNA added, FIG. 30)?
**A.** The DNA elongation rate was “an increase in the DNA elongation rate was observed”.

**Q.** What about the “increase of DNA elongation rate compared to single use of KOD DNA polymerase” value ([4]; using KOD-PCNA) of the same molecule?
**A.** Its value is “several fold”.

**Q.** And the “amplification of the target DNA” value ([2]; 10 fmol of PCNA alone, 1 ng template, FIG. 33)?
**A.** Its value is “amplification of the target DNA was barely observed together with a smear”.

**Q.** What about the “amplification of the target DNA” value ([2]; 30 fmol of PCNA, 1 ng template DNA, FIG. 31) of the same molecule?
**A.** Its value is “amplification of the target DNA was observed”.

**Q.** And the “amplification of the target DNA” value ([2]; PCNA added, 3 ng template DNA, FIG. 31)?
**A.** The value was “amplification of the target DNA was more clearly observed”.

**Q.** And the “increase of PCR sensitivity” value ([2]; addition of PCNA)?
**A.** Its value is “at least 3 fold”.

**Q.** And the “amplification of the target DNA” value ([3]; addition of PCNA)?
**A.** The value was “amplification of the target DNA was made somewhat clearer”.

B3: KOD DNA polymerase: Thermococcus kodakaraensis KOD1-derived thermostable α-type DNA polymerase, SEQ ID NO: 1 (protein)
chain: MILDTDYITEDGKPVIRIFKKENGEFKIEYDRTFEPYFYALLKDDSAIEEVKKITAERHGTVVTVKRVEKVQKKFLGRPVEVWKLYFTHPQDVPAIRDKIREHPAVIDIYEYDIPFAKRYLIDKGLVPMEGDEELKMLAFDIETLYHEGEEFAEGPILMISYADEEGARVITWKNVDLPYVDVVSTEREMIKRFLRVVKEKDPDVLITYNGDNFDFAYLKKRCEKLGINFALGRDGSEPKIQRMGDRFAVEVKGRIHFDLYPVIRRTINLPTYTLEAVYEAVFGQPKEKVYAEEITTAWETGENLERVARYSMEDAKVTYELGKEFLPMEAQLSRLIGQSLWDVSRSSTGNLVEWFLLRKAYERNELAPNKPDEKELARRRQSYEGGYVKEPERGLWENIVYLDFRSLYPSIIITHNVSPDTLNREGCKEYDVAPQVGHRFCKDFPGFIPSLLGDLLEERQKIKKKMKATIDPIERKLLDYRQRAIKILANSYYGYYGYARARWYCKECAESVTAWGREYITMTIKEIEEKYGFKVIYSDTDGFFATIPGADAETVKKKAMEFLKYINAKLPGALELEYEGFYKRGFFVTKKKYAVIDEEGKITTRGLEIVRRDWSEIAKETQARVLEALLKDGDVEKAVRIVKEVTEKLSKYEVPPEKLVIHEQITRDLKDYKATGPHVAVAKRLAARGVKIRPGTVISYIVLKGSGRIGDRAIPFDEFDPTKHKYDAEYYIENQVLPAVERILRAFGYRKEDLRYQKTRQVGLSAWLKPKGT
modifications: Thermococcus kodakaraensis KOD1; KOD DNA polymerase
**Q.** With B3 as the molecule, how does the processivity ([4]; no PCNA added) read?
**A.** Its processivity is no less than 5 kb.

**Q.** And the “elongation (size of synthesized DNA)” value ([4]; no PCNA added, reaction time 30 seconds)?
**A.** Its value is 1.2 kb.

**Q.** And the “elongation (size of synthesized DNA)” value ([4]; no PCNA added, reaction time 60 seconds)?
**A.** Its value is 2.5 kb.

**Q.** What about the “elongation (size of synthesized DNA)” value ([4]; no PCNA added, reaction time 120 seconds) of the same molecule?
**A.** The value was 5 kb.

**Q.** What about the elongation rate ([4]; no PCNA, 1.5 pmol substrate DNA relative to 150 fmol DNA polymerase) of the same molecule?
**A.** The elongation rate was “about 40 bases per second”.

**Q.** And the mutation rate [5]?
**A.** The mutation rate was no more than 0.1%.
